Test results: patent US20200407452A1 (published 2020)

How the values were obtained:
[1] = biological target: T1, native mouse MET on living cells (mouse, UniProt P16056 25-1379); test: cell-based or functional assay
[2] = biological target: T2, native human MET on living cells (human, UniProt P08581 25-1390); test: cell-based or functional assay
[3] = biological target: T3, mouse MET ECD (mouse, UniProt P16056 25-931); test: ELISA, MET ECD coated, mAb 0-20 nM
T3 construct: range 1-931; recombinant; range as printed includes the signal peptide; also called mMET; mMET ECD
Method: (§1) Production (by transient transfection of mammalian cells) and purification (by protein A affinity chromatography) of the resulting chimeric llama-human IgG1 molecules was outsourced to U-protein Express. Binding of chimeric mAbs to MET was determined by ELISA using hMET or mMET ECD in solid phase and increasing concentrations of antibodies (0-20 nM) in solution. […] Binding capacity (EMAX) varied from antibody to antibody, possibly due to partial epitope exposure in the immobilized antigen, but was similar in the human and mouse setting.

[4] = biological target: T4, human MET ECD (human, UniProt P08581 25-932); test: ELISA, MET ECD coated, mAb 0-20 nM
T4 construct: range 1-932; recombinant; range as printed includes the signal peptide; also called hMET; hMET ECD
Method: as §1

[5] = biological target: T1, native mouse MET on living cells; test: cell-based or functional assay; remark: listed apart in the source
[6] = biological target: T2, native human MET on living cells; test: cell-based or functional assay; remark: listed apart in the source
[7] = biological target: T1, native mouse MET on living cells; test: cell-based or functional assay; remark: listed apart in the source
[8] = biological target: T2, native human MET on living cells; test: cell-based or functional assay; remark: listed apart in the source
[9] = biological target: human MET ECD mutant H (mutations 2, 4) (human) (UniProt P08581); test: ELISA, WT or mutant hMET ECD coated
[10] = biological target: human MET ECD mutant A (mutations 1, 2, 3) (human) (UniProt P08581); test: ELISA, WT or mutant hMET ECD coated
[11] = biological target: human MET ECD mutant E (mutations 2, 3, 4) (human) (UniProt P08581); test: ELISA, WT or mutant hMET ECD coated
[12] = biological target: human MET ECD mutant D (mutations 1, 2) (human) (UniProt P08581); test: ELISA, WT or mutant hMET ECD coated
[13] = biological target: T4, human MET ECD; test: ELISA, WT or mutant hMET ECD coated
Method: Using human MET as a template, we mutagenized each of these residues in different permutations, generating a series of MET mutants that are fully human except for specific residues, which are llama. Next, we tested the affinity of selected SEMA-binding mAbs (71D6, 71C3, 71D4, 71A3, 71G2) and PSI-binding mAbs (76H10 and 71G3) for these MET mutants by ELISA. To this end, the various MET proteins were immobilized in solid phase (100 ng/well in a 96-well plate) and then exposed to increasing concentrations of antibodies (0-50 nM) solution. […] Wild-type human MET was used as positive control.
TABLE 24 The epitopes of MET responsible for agonistic antibody binding represent residues conserved among H. sapiens, M. musculus, R. norvegicus, M. fascicularis but not among the same species and L. glama. The relevance of residues conserved among human, mouse, rat, cynomolgus monkey but not llama MET for binding to agonistic mAbs was tested by ELISA. Wild-type (WT) or mutant (MT) human MET ECD was immobilized in solid phase and exposed to increasing concentrations of mAbs in solution. […] All binding values were normalized to the WT protein and are expressed as % binding (EMAX) compared to WT MET.

Binder	MLP29 br. m. (branch n.) [1]	LOC br. m. (branch n.) [2]	EMAX [3]	EMAX [4]	protection from staurosporine-induced apoptosis EC50, MLP29 cells [5]	protection from staurosporine-induced apoptosis EMAX, MLP29 cells [5]	protection from staurosporine-induced apoptosis EC50, MCF10A cells [6]	protection from staurosporine-induced apoptosis EMAX, MCF10A cells [6]	phospho-MET ELISA EMAX, MLP29 cells [7]	phospho-MET ELISA EMAX, A549 cells [8]	% binding (EMAX) vs WT MET ECD [9]	% binding (EMAX) vs WT MET ECD [10]	% binding (EMAX) vs WT MET ECD [11]	% binding (EMAX) vs WT MET ECD [12]	% binding (EMAX) vs WT MET ECD [13]
71G3 llama-mouse chimeric mAb (mouse IgG1/lambda) (antibody, V domains shown) VH: QVQLVESGGGLVQPGGSLRVSCAASGFTFSTYYMSWVRQAPGKGLEWVSDIRTDGGTYYADSVKGRFTMSRDNAKNTLYLQMNSLKPEDTALYYCARTRIFPSGYDYWGQGTQVTVSS VL: QAVVTQEPSLSVSPGGTVTLTCGLSSGSVTTSNYPGWFQQTPGQAPRTLIYNTNSRHSGVPSRFSGSISGNKAALTIMGAQPEDEADYYCSLYPGSTTVFGGGTHLTVLG	30.1 branches per spheroid	20.8 branches per spheroid													
72F8 chimeric llama-human IgG1 mAb (antibody, V domains shown, human IgG1 CH1-CH2-CH3 and human CL lambda) VH: ELQLVESGGGLVQPGGSLRLSCAASGFTFSNYVMSWVRQAPGKGLEWVSDTNSGGSTSYADSVKGRFTISRDNAKNTLYLQMNSLKPEDTALYYCARSFFYGMNYWGKGTQVTVSS VL: QSALTQPPSLSASPGSSVRLTCTLSSGNNIGSYDISWYQQKAGSPPRYLLNYYTDSRKHQDSGVPSRFSGSKDASANAGLLLISGLQPEDEADYYCSAYKSGSYRWVFGGGTHVTVL			2.9 OD450 AU	2.78 OD450 AU	> 32 nM	43.8%	> 32 nM	35.8%	66.8 % HGF activity	69.7 % HGF activity					
71G12 chimeric llama-human IgG1 mAb (antibody, V domains shown, human IgG1 CH1-CH2-CH3 and human CL kappa) VH: QVQLQESGGDLVQPGGSLRVSCVVSGFTFSRYYMSWVRQAPGKGLEWVSSIDSYGYSTYYTDSVKGRFTISRDNAKNTLYLQMNSLKPEDTALYYCARAKTTWSYDYWGQGTQVTVSS VL: EIVLTQSPSSVTASVGGKVTINCKSSQSVFIASNQKTYLNWYQQRPGQSPRLVISYASTRESGIPDRFSGSGSTTDFTLTISSVQPEDAAVYYCQQAYSHPTFGQGTKVELK			2.97 OD450 AU	3.08 OD450 AU	> 32 nM	39.7%	> 32 nM	39.4%	75.4 % HGF activity	70.6 % HGF activity					
74C8 chimeric llama-human IgG1 mAb (antibody, V domains shown, human IgG1 CH1-CH2-CH3 and human CL lambda) VH: EVQLVESGGGLVQPGGSLRLSCAASGFTFRNYHMSWVRQVPGKGFEWISDINSAGGSTYYADSVKGRFTISRDNAKNTLYLEMNSLKPEDTALYYCARVNVWGVNYWGKGTLVSVSS VL: QTVVTQEPSLSVSPGGTVTLTCGLSSGSVTTSNYPGWFQQTPGQAPRTLIYNTNSRHSGVPSRFSGSISGNKAALTITGAQPEDEADYYCSLYPGSYTNVFGGGTHLTVL			0.896 OD450 AU	0.994 OD450 AU	> 32 nM	37.5%	> 32 nM	41.7%	102 % HGF activity	87.6 % HGF activity					
recombinant mouse HGF (R&D Systems) (ligand, UniProt Q08048 33-728, looked up, biotinylated at the N-terminus using NHS-LC-biotin (in the competition ELISA only)) QKKRRNTLHEFKKSAKTTLTKEDPLLKIKTKKVNSADECANRCIRNRGFTFTCKAFVFDKSRKRCYWYPFNSMSSGVKKGFGHEFDLYENKDYIRNCIIGKGGSYKGTVSITKSGIKCQPWNSMIPHEHSFLPSSYRGKDLQENYCRNPRGEEGGPWCFTSNPEVRYEVCDIPQCSEVECMTCNGESYRGPMDHTESGKTCQRWDQQTPHRHKFLPERYPDKGFDDNYCRNPDGKPRPWCYTLDPDTPWEYCAIKTCAHSAVNETDVPMETTECIQGQGEGYRGTSNTIWNGIPCQRWDSQYPHKHDITPENFKCKDLRENYCRNPDGAESPWCFTTDPNIRVGYCSQIPKCDVSSGQDCYRGNGKNYMGNLSKTRSGLTCSMWDKNMEDLHRHIFWEPDASKLNKNYCRNPDDDAHGPWCYTGNPLIPWDYCPISRCEGDTTPTIVNLDHPVISCAKTKQLRVVNGIPTQTTVGWMVSLKYRNKHICGGSLIKESWVLTARQCFPARNKDLKDYEAWLGIHDVHERGEEKRKQILNISQLVYGPEGSDLVLLKLARPAILDNFVSTIDLPSYGCTIPEKTTCSIYGWGYTGLINADGLLRVAHLYIMGNEKCSQHHQGKVTLNESELCAGAEKIGSGPCEGDYGGPLICEQHKMRMVLGVIVPGRGCAIPNRPGIFVRVAYYAKWIHKVILTYKL					5.35 nM	58.6%			100 % HGF activity						
71C3 chimeric llama-human IgG1 mAb (antibody, V domains shown, human IgG1 CH1-CH2-CH3 and human CL lambda) VH: QLQLVESGGGLVQPGGSLRLSCAASGFTFSSHAMSWVRQAPGKGLEWVSAINSGGGSTSYADSVKGRFTISRDNAKNTLYLQMNSLKPEDTAVYYCAKELRFDLARYTDYEAWDYWGQGTQVTVSS VL: SYELTQPSALSVTLGQTAKITCQGGSLGSSYAHWYQQKPGQAPVLVIYDDDSRPSGIPERFSGSSSGGTATLTISGAQAEDEGDYYCQSADSSGNAAVFGGGTHLTVL			2.24 OD450 AU	2.46 OD450 AU	31 nM	51.3%	31.9 nM	50.2%	98.8 % HGF activity	86.2 % HGF activity	61.6%	99.8%	59.6%	102%	100%
71D4 chimeric llama-human IgG1 mAb (antibody, V domains shown, human IgG1 CH1-CH2-CH3 and human CL lambda) VH: ELQLVESGGGLVQPGGSLRLSCAASGFTFSGYGMSWVRQAPGKGLEWVSDINSGGGSTSYADSVKGRFTISRDNAKNTLYLQMNSLKPEDTAVYYCAKDMRLYLARYNDYEAWDYWGQGTQVTVSS VL: SSALTQPSALSVTLGQTAKITCQGGSLGSSYAHWYQQKPGQAPVLVIYDDDSRPSGIPERFSGSSSGGTATLTISGAQAEDEGDYYCQSADSSGNAAVFGGGTHLTVL			1.17 OD450 AU	1.43 OD450 AU	29.8 nM	52.1%	30.2 nM	51.7%	95.3 % HGF activity	84.6 % HGF activity	58.7%	114%	57.2%	120%	100%
71G2 llama-mouse chimeric mAb (mouse IgG1/lambda) (antibody, V domains shown) VH: EVQLQESGGGLVQPGGSLRLSCAASGFTFSIYDMSWVRQAPGKGLEWVSTINSDGSSTSYVDSVKGRFTISRDNAKNTLYLQMNSLKPEDTAVYYCAKVYGSTWDVGPMGYGMDYWGKGTLVTVSS VL: SSALTQPSALSVSLGQTARITCQGGSLGSSYAHWYQQKPGQAPVLVIYGDDSRPSGIPERFSGSSSGGTATLTISGAQAEDEDDYYCQSTDSSGNTVFGGGTRLTVLG	41.2 branches per spheroid	29.8 branches per spheroid													
76G7 chimeric llama-human IgG1 mAb (antibody, V domains shown, human IgG1 CH1-CH2-CH3 and human CL lambda) VH: QVQLVESGGNLVQPGGSLRLSCAASGFTFSNYYMSWVRQAPGKGLEWVSDIYSDGSTTWYSDSVKGRFTISRDNAKNTLSLQMNSLKSEDTAVYYCARVKIYPGGYDAWGQGTQVTVSS VL: QAGLTQPPSVSGSPGKTVTISCAGNSSDVGYGNYVSWYQQFPGMAPKLLIYLVNKRASGITDRFSGSKSGNTASLTISGLQSEDEADYYCASYTGSNNIVFGGGTHLTVL			2.78 OD450 AU	2.62 OD450 AU	30.1 nM	50.2%	25.4 nM	51.9%	71.5 % HGF activity	62.3 % HGF activity					
